Data published in patent publication US20120316071A1 (published 2012).
One block for each binder: values may come before it.

How the values were obtained:
[1] = biological target: T1, Recombinant Human DLL4 (R&D Systems Cat#1506-D4/CF) (human, UniProt Q9NR61 27-529); test: ECL 96-well plate assay (MSD), 0.1 µM Fab, plate coated with 30 µg/mL DLL4
T1 construct: Bought recombinant protein, coated on the plate; also called delta-like protein 4; rHuman DLL4

[2] = biological target: T1, Recombinant Human DLL4 (R&D Systems …); test: ECL 96-well plate assay (MSD), 0.02 µM Fab, plate coated with 15 µg/mL DLL4
[3] = biological target: T2, Recombinant Human DLL4 (delta-like protein 4) (human, UniProt Q9NR61 27-524); test: ECL binding assay on immobilized DLL4, Fab at 0.04 µM
T2 construct: Bought recombinant human DLL4 (R&D Systems Cat#1506-D4/CF); also called rHuman DLL4; Delta-like ligand 4

[4] = biological target: T3, rHuman EGF R/Fc Chimera, CF (R&D Systems Cat#344-ER) (human, UniProt P00533 25-645); test: ECL multispot (MSD) binding assay, antigen spotted on plate, Fab 0.04 uM;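 note: purified Fab incubated 1 h at 20 °C on antigen spots, detected via TAG-labelled antibody, ECL read against each well's blank, with signal-to-blank of at least 4 scored as binder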
T3 construct: Bought recombinant protein; also called epidermal growth factor receptor; Fc part of the bought chimera not given

[5] = biological target: T4, rHuman P-Cadherin/Fc Chimera, CF (R&D Systems Cat#861-PC) (human, UniProt P22223 108-654); test: as above
T4 construct: Bought recombinant protein; Fc part of the bought chimera not given

[6] = biological target: T5, rHuman Erythropoietin R/Fc Chimera, CF (R&D Systems Cat#963-ER) (human, UniProt P19235 25-250); test: as above
T5 construct: Bought recombinant protein; also called EPO R; EPO R/Fc; Fc part of the bought chimera not given
T5 sequence (looked up): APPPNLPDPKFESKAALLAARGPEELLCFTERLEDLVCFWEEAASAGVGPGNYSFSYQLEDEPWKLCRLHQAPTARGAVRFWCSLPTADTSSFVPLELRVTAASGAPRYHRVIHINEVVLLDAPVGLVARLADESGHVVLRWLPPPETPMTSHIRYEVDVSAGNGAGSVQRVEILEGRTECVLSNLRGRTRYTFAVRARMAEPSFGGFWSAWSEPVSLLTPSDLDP

[7] = biological target: T6, Recombinant Human DLL4 (R&D Systems Cat#1506-D4/CF) (human, UniProt Q9NR61 27-524); test: as above
T6 construct: Bought recombinant protein; also called delta-like protein 4; rHuman DLL4

[8] = biological target: T7, Recombinant Human DLL4 (R&D Systems Cat#1506-D4/CF) (human, UniProt Q9NR61 27-524); test: ELISA, DLL4 coated on plate, Fab at 100 nM, absorbance at 450 nm
T7 construct: also called delta-like protein 4; rHuman DLL4

Signal/Noise [1]: 1
Signal/Noise [2]: 1
B1: Fab VH5-51_IGHD5-18*01>3_IGHJ4*01 Y105A & V3-4_IGLJ1*01 (Fab, V domains shown)
VH: EVQLVQSGAEVKKPGESLKISCKGSGYSFTSYWIGWVRQMPGKGLEWMGIIYPGDSDTRYSPSFQGQVTISADKSISTAYLQWSSLKASDTAMYYCARRGYSYGADYFDYWGQGTLVTVSS
VL: QTVVTQEPSFSVSPGGTVTLTCGLSSGSVSTSYYPSWYQQTPGQAPRTLIYSTNTRSSGVPDRFSGSILGNKAALTITGAQADDESDYYCVLYMGSGISYVFGTGTKVTVL
notes: Heavy chain CDR3 alanine mutant of the parent Fab; Fab format as for the parent

Signal/Noise (0.04 µM) [3]: 30.4
B2: Fab VH5-51_IGHD5-18*01>3_IGHJ4*01 G100A & V3-4_IGLJ1*01 (Fab, V domains shown)
VH: EVQLVQSGAEVKKPGESLKISCKGSGYSFTSYWIGWVRQMPGKGLEWMGIIYPGDSDTRYSPSFQGQVTISADKSISTAYLQWSSLKASDTAMYYCARRAYSYGYDYFDYWGQGTLVTVSS
VL: QTVVTQEPSFSVSPGGTVTLTCGLSSGSVSTSYYPSWYQQTPGQAPRTLIYSTNTRSSGVPDRFSGSILGNKAALTITGAQADDESDYYCVLYMGSGISYVFGTGTKVTVL
notes: Fab with CH1 (Plasmid A, His6 and Flag tags) and lambda CL (Plasmid E)

Signal/Noise (0.04 µM) [3]: 1.2
B3: Fab VH5-51_IGHD5-18*01>3_IGHJ4*01 Y103A & V3-4_IGLJ1*01 (Fab, V domains shown)
VH: EVQLVQSGAEVKKPGESLKISCKGSGYSFTSYWIGWVRQMPGKGLEWMGIIYPGDSDTRYSPSFQGQVTISADKSISTAYLQWSSLKASDTAMYYCARRGYSAGYDYFDYWGQGTLVTVSS
VL: QTVVTQEPSFSVSPGGTVTLTCGLSSGSVSTSYYPSWYQQTPGQAPRTLIYSTNTRSSGVPDRFSGSILGNKAALTITGAQADDESDYYCVLYMGSGISYVFGTGTKVTVL
notes: as for B2

Signal/Noise (0.04 µM) [3]: 15.5
B4: Fab VH5-51_IGHD5-18*01>3_IGHJ4*01 G104A & V3-4_IGLJ1*01 (Fab, V domains shown)
VH: EVQLVQSGAEVKKPGESLKISCKGSGYSFTSYWIGWVRQMPGKGLEWMGIIYPGDSDTRYSPSFQGQVTISADKSISTAYLQWSSLKASDTAMYYCARRGYSYAYDYFDYWGQGTLVTVSS
VL: QTVVTQEPSFSVSPGGTVTLTCGLSSGSVSTSYYPSWYQQTPGQAPRTLIYSTNTRSSGVPDRFSGSILGNKAALTITGAQADDESDYYCVLYMGSGISYVFGTGTKVTVL
notes: as for B2

Signal/Noise (0.04 µM) [3]: 9.6
B5: Fab VH5-51_IGHD5-18*01>3_IGHJ4*01 Y105A & V3-4_IGLJ1*01 (Fab, V domains shown)
VH: EVQLVQSGAEVKKPGESLKISCKGSGYSFTSYWIGWVRQMPGKGLEWMGIIYPGDSDTRYSPSFQGQVTISADKSISTAYLQWSSLKASDTAMYYCARRGYSYGADYFDYWGQGTLVTVSS
VL: QTVVTQEPSFSVSPGGTVTLTCGLSSGSVSTSYYPSWYQQTPGQAPRTLIYSTNTRSSGVPDRFSGSILGNKAALTITGAQADDESDYYCVLYMGSGISYVFGTGTKVTVL
notes: as for B2

ECL signal [4]: 1010
ECL signal [5]: 326
ECL signal [6]: 582
ECL signal [7]: 11700
B6: Fab VH5-51_IGHD5-18*01>3_IGHJ4*01 G100K/G104T (H:KT) & V3-4_IGLJ1*01 L92A (Fab, V domains shown)
VH: EVQLVQSGAEVKKPGESLKISCKGSGYSFTSYWIGWVRQMPGKGLEWMGIIYPGDSDTRYSPSFQGQVTISADKSISTAYLQWSSLKASDTAMYYCARRKYSYTYDYFDYWGQGTLVTVSS
VL: QTVVTQEPSFSVSPGGTVTLTCGLSSGSVSTSYYPSWYQQTPGQAPRTLIYSTNTRSSGVPDRFSGSILGNKAALTITGAQADDESDYYCVAYMGSGISYVFGTGTKVTVL
notes: Fab; Expressed from Plasmid A (CH1, His6 and Flag tags) and Plasmid E (lambda CL); also called KT & L92A

Signal/Noise [1]: 4
Signal/Noise [2]: 1.5
B7: Fab VH5-51_IGHD5-18*01>3_IGHJ4*01 Y103A & V3-4_IGLJ1*01 (Fab, V domains shown)
VH: EVQLVQSGAEVKKPGESLKISCKGSGYSFTSYWIGWVRQMPGKGLEWMGIIYPGDSDTRYSPSFQGQVTISADKSISTAYLQWSSLKASDTAMYYCARRGYSAGYDYFDYWGQGTLVTVSS
VL: QTVVTQEPSFSVSPGGTVTLTCGLSSGSVSTSYYPSWYQQTPGQAPRTLIYSTNTRSSGVPDRFSGSILGNKAALTITGAQADDESDYYCVLYMGSGISYVFGTGTKVTVL
notes: as for B1

ELISA Signal-blank (100 nM Fab) [8]: 0.439
B8: Fab VH5-51_IGHD5-18*01>3_IGHJ4*01 G100K/G104T G24T/S28R/G35V (H:KT TRV) & V3-4_IGLJ1*01 S96E (Fab, V domains shown)
VH: EVQLVQSGAEVKKPGESLKISCKTSGYRFTSYWIVWVRQMPGKGLEWMGIIYPGDSDTRYSPSFQGQVTISADKSISTAYLQWSSLKASDTAMYYCARRKYSYTYDYFDYWGQGTLVTVSS
VL: QTVVTQEPSFSVSPGGTVTLTCGLSSGSVSTSYYPSWYQQTPGQAPRTLIYSTNTRSSGVPDRFSGSILGNKAALTITGAQADDESDYYCVLYMGEGISYVFGTGTKVTVL
notes: Tested as Fab expressed in E. coli
